Assay [1] concerns the target T1, tCD45RO_WT (truncated, N-terminally myc-tagged wild-type CD45RO construct) (human, UniProt P08575 1-604).
T1 construct: Expressed from lentivirus on CD45-negative NALM6 cells; also called WT CD45; CD45 WT
T1 sequence: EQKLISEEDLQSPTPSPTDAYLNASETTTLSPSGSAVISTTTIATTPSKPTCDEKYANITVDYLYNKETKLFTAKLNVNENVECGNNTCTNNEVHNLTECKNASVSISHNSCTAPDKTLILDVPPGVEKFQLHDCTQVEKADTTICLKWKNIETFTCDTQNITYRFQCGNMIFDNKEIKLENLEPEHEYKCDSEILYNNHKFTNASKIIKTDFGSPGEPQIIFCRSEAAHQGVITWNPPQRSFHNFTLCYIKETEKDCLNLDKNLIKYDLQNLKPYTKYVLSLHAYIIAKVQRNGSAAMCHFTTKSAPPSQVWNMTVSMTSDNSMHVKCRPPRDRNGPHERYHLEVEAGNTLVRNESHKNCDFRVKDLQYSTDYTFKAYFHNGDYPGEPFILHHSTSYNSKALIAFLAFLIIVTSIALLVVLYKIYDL
In words: staining of cells expressing truncated CD45 constructs with his-tagged scFv/antibody clones. The source says:
(§1) With the information obtained from the crystal structure (and given that FN domains are evolutionary conserved and stable structures), and without wishing to be bound by theory, it was hypothesized that the subdomains which are recognized by the CAR45-T cells can be narrowed down by sequentially truncating the extracellular domain. The constructs to generate the truncated CD45 constructs were de novo synthesized (FIG. 24A). To verify surface expression of the truncated CD45 constructs, all constructs were myc-tagged at the N-terminus to allow surface staining against the truncated CD45 expressing cell using anti-Myc antibodies followed by readout via flowcytometry. Cells expressing the truncated CD45 constructs were stained with recombinantly expressed, his-tagged scFv/antibody clones from which the CARs were made off. Positive staining for the his tag therefore only occurs when the scFv/antibody clones can bind truncated CD45.

The target of assay [2] is T2, tCD45_RO_T8A (CD45RO with Thr8 changed to alanine) (human, UniProt P08575 1-604).
T2 construct: The entry already carries the substitution, the signal peptide and the myc tag
T2 sequence: T1 sequence with T18A
Nature of the assay: antibody staining (figure cited in the text as FIG. 42, left).

The target in assay [3] is T1, tCD45RO_WT (truncated, N-terminally …). In words: flow cytometry, his-tag staining of cells expressing myc-tagged truncated CD45 constructs.
Text: as §1
A general note: A flow cytometer gives signals particle by particle.

Residue numbers refer to the chain shown, from its start.

B1: recombinantly expressed, his-tagged scFv/antibody clone Gap8.3 (scFv, V domains shown)
VH: EVQLQQSGPELVKTGASVKISCKASGYSFTGYFIHWVKQSHGKSLEWIGYISCYNGATSYNQKFKGKATFTVDTSSSTAYMQFNSVTSEDSAVYYCVRNYYGNLDAMDYWGQGTSVTVSS
VL: DIVMTQSHKFMSTSVGDRVSITCKASQDVSTAVAWYQQKPGQSPKILIYSASYRYTGVPDRFTGSGSGTDFTFTISSVQAEDLAVYYCQQHYSTPRTFGGGTKLEIK
notes: Soluble his-tagged scFv/antibody clone used to stain cells expressing truncated CD45; also called Gap8.3 scFv
On to B1, for which the binding result in assay [1] is reported as “binds”.

B2: recombinantly expressed, his-tagged scFv/antibody clone 9.4 (scFv, V domains shown)
VH: QVQLQQLGAELARPGASVKMSCKASGYTFTSYSIQWVKQRPGQGLEWIGYINPSSGYIKYNQHFRDRATLTADRSSSTAYMQLSSLTSEDSAVYYCARGNSGSFDYWGQGTTLTVSS
VL: DIVMTQAAPSVPVTPGESLSISCRSSKSLLHSSGITYLYWFLQRPGQSPQLLIYRMSNLASGVPDRFSGSGSGTAFTLRISRVEAEDVGVYYCMQHLEYPFTFGGGTKLEIK
notes: Soluble his-tagged scFv/antibody clone used to stain cells expressing truncated CD45; also called 9.4 scFv
For the molecule B2, the binding result in assay [1] is on record as “binds”.

B3: antibody clone UCHL-1 (CD45RO-specific) (antibody, V domains shown)
VH: QITLKESGPGILQPSQTLSLTCSFSGFSLTTYGIGVGWIRQPPGKGLEWLTHIWWNDNKYYNTALRSRLTISKDSSNNQVLLKIANVDTADTATYYCLYGYTYWGQGTLVTVSA
VL: DVVMTQTPLSLPVSLGDQASISCRSSQSLLYSNGNTYLHWYLQKPGQSPKLLIYKLSNRFSGVPDRFSGSGSGTDFTLKISRVEAEDLGVYFCSQSTHVPWTFGGGTKLEIK
notes: also called muUCHL
As for B3, the binding result in assay [2] was “no binding”.

B4: recombinantly expressed, his-tagged scFv/antibody clone 4B2 (scFv, V domains shown)
VH: GVQLQESGAELARPGASVKMSCKASGYTFTSYTMQWVKQRPGQGLEWIGYINPSSGYIKYNQKFKDKVTLTADKSSTTAYMQLSRLTSEDSAVYYCARRGSYFFDFWGQGTSVTVSS
VL: DIVITQDELSNPVTSGESVSISCRSSKSLLYKDGKTYLNWFLQRPGQSPQLLIYLMSTRASGVSDRFSGSGSGTDFTLEISRVKAEDVGVYYCQQLVEYPFTFGGGTKLEVK
notes: Soluble his-tagged scFv/antibody clone used to stain cells expressing truncated CD45; also called 4B2 scFv
Take B4: the binding result in assay [1] is reported as “binds”.

B5: recombinantly expressed, his-tagged scFv from the BC8 clone (scFv, V domains shown)
VH: QVQLVESGGGLVQPGGSLKLSCAASGFDFSRYWMSWVRQAPGKGLEWIGEINPTSSTINFTPSLKDKVFISRDNAKNTLYLQMSKVRSEDTALYYCARGNYYRYGDAMDYWGQGTSVTVS
VL: DIVLTQSPASLAVSLGQRATISCRASKSVSTSGYSYLHWYQQKPGQPPKLLIYLASNLESGVPARFSGSGSGTDFTLNIHPVEEEDAATYYCQHSRELPFTFGSGTKLEIK
notes: Soluble his-tagged scFv used to stain cells; also called BC8 scFv
Regarding B5, the binding result in assay [3] is recorded as “binds”.

For the origin of these results see patent US20250041339A1 (University of Pennsylvania, published 2025).
